Substitutions are numbered along the chain they refer to. Like-named read-outs stand apart in the source and are kept apart here.
B1: A44-hv11 (antibody, V domains shown)
VH: QMTLKESGPTLVKPTQTLSLTCSVSGDSMTNGYWNWIRQFPGKALEYMGYITYSGSTYYNPSLKGRITITRDTSKNQYYLTLSSVTTVDTATYYCARWHYGSPYYFDYWGQGTTLTVSS
VL: DIKMTQSPSSLSASVGDRVTITCKASQDINSYLSWLQQKPGKSPKTLIYRAQRSVEGVPSRFSGSGSGQDYSLTISSLQPEDLGIYYCLQYDEFPPTFGGGTKLEIK
notes: humanized A44, HEK293; compared with a human IgG1 isotype control; constant regions as for A44-hv1; also called A44V11; A44v11
B2: A44-hv13 (antibody, V domains shown)
VH: QMQLQESGPGLVKPSETLSLTCTVSGDSMTNGYWNWIRQPPGKGLEYMGYITYSGSTYYNPSLKSRITISRDTSKNQYSLKLSSVTAADTAVYYCARWHYGSPYYFDYWGQGTLVTVSS
VL: B1 VL
notes: humanized A44, HEK293; constant regions as for A44-hv1; also called LC2 x HC5b; variant 13
B3: A44 (antibody, mouse IgG1, V domains shown)
VH: EMQLQESGPSLVKPSQTLSLTCSVTGDSMTNGYWNWIRKFPGNKLEYMGYITYSGSTYYNPSLKGRISITRNTSKNQYYLQLSSVTTEDTATYYCARWHYGSPYYFDYWGQGTTLTVSS
VL: DIKMTQSPSSMYASLGERVTITCKASQDINSYLSWLQQKPGKSPKTLIYRANRSVDGVPSRFSGSGSGQDYSLTISSLEYEDMGIYYCLQYDEFPPTFGGGTKLEIKR
notes: mouse IgG1/kappa; also called mA44; A44 parental
B4: A44-hv2 (antibody, V domains shown)
VH: B3 VH with S10G, Q16E, N43K, K44G, Q81K, E88A
VL: DIKMTQSPSSVSVSPGQTVTITCKASQDINSYLSWLQQKPGQSPKTLIYRANRSVDGVPSRFSGSGSGQDYSLTISSLQAMDEGIYYCLQYDEFPPTFGGGTKLTIK
notes: humanized A44, HEK293; constant regions as for A44-hv1; also called LC1b x HC1b; variant 2

Assays:
[1] = target: T1, cyno PAI-1 captured on immobilized human vitronectin (cynomolgus monkey; human, UniProt P04004 20-478, limits assumed); test: Biacore, cPAI-1 on vitronectin chip, two state reaction model (kd1)
T1 construct: non-covalent complex formed on the chip; also called cPAI-1/Vn

[2] = target: T2, glycosylated human PAI-1 (active form) (human, UniProt P05121 24-402, glycosylated); test: cell-based or functional assay
[3] = target: T3, human PAI-1 captured on immobilized human vitronectin (human, UniProt P04004 20-478); test: Biacore, hPAI-1 on vitronectin chip, 1:1 model
T3 construct: non-covalent complex formed on the chip or plate; also called PAI-1/Vn complex; Vn captured hPAI-1

[4] = target: T1, cyno PAI-1 captured on immobilized …; test: Biacore, cPAI-1 on vitronectin chip, two state reaction model (ka1)
[5] = target: T4, human PAI-1 (human, UniProt P05121 24-402); test: Biacore, mAb on anti-human IgG Fc chip, 1:1 model
T4 construct: also used for endogenous PAI-1 of human plasma, liver lysate and lung fibroblasts; also called hPAI-1; hPAI

[6] = target: T2, glycosylated human PAI-1 (active form); test: cell-based or functional assay; remark: listed apart in the source
[7] = target: T5, cynomolgus PAI-1 (cynomolgus monkey (Macaca fascicularis), UniProt P05121 24-402 (human entry)); test: Biacore, mAb on anti-human IgG Fc chip / cyno PAI-1, 1:1 model
T5 construct: produced in-house in E. coli (non-glycosylated); active cyno PAI-1 in the assays; also called cyno PAI-1; cPAI-1

[8] = target: T2, glycosylated human PAI-1 (active form); test: cell-based or functional assay; remark: listed apart in the source
[9] = target: T4, human PAI-1; test: cell-based or functional assay
[10] = target: T5, cynomolgus PAI-1; test: cell-based or functional assay
[11] = target: T4, human PAI-1; test: cell-based or functional assay; remark: listed apart in the source
[12] = target: T1, cyno PAI-1 captured on immobilized …; test: Biacore, cPAI-1 on vitronectin chip, two state reaction model
[13] = target: T3, human PAI-1 captured on immobilized …; test: Biacore, hPAI-1 on vitronectin chip, two state reaction model (kd1)
[14] = target: T3, human PAI-1 captured on immobilized …; test: Biacore, hPAI-1 on vitronectin chip, two state reaction model (ka1)
[15] = target: T3, human PAI-1 captured on immobilized …; test: Biacore, hPAI-1 on vitronectin chip, two state reaction model
[16] = target: T1, cyno PAI-1 captured on immobilized …; test: Biacore, cPAI-1 on vitronectin chip, 1:1 model
[17] = target: T2, glycosylated human PAI-1 (active form); test: cell-based or functional assay; remark: listed apart in the source
[18] = target: T3, human PAI-1 captured on immobilized …; test: Biacore forward assay, hPAI-1 captured on immobilized vitronectin
Description: Binding kinetics of representative antibodies were further analyzed and compared in Biacore forward assay with vitronectin and PAI-1 complex. In the forward assay, human vitronectin protein was immobilized onto the CM5 chip in flow cells Fc1-Fc4 by amine coupling. Human PAI-1 was then captured to the vitronectin surface in flow cells Fc2-Fe4 as ligand. Fc1 was reserved as reference cell. The antibodies were diluted 2× starting from 40 nM and injected to Fc1-4. Kinetics data analysis was performed using Biacore BIAevaluation software. The sensorgrams were first double-referenced by subtracting the reference cell values and the blank buffer values, and then fitted by 1:1 (Langmuir) model was used with global Rmax.

[19] = target: T5, cynomolgus PAI-1; test: cell-based or functional assay; remark: listed apart in the source
[20] = target: T4, human PAI-1; test: Biacore, hybridoma supernatant
[21] = target: T2, glycosylated human PAI-1 (active form); test: Biacore (summary table)
Description: (§1) In kinetics measurement, the antibodies were evaluated in reverse at 25° C. In the reverse assay, PAI-1 antibodies were captured to the anti-mouse IgG Fc antibody surface prepared on CM5 chip followed by injecting the serial 2× dilutions of PAI-1 proteins (human or cyno) starting at 40 nM. A high flow rate was chosen at 50 ul/min to avoid mass transportation limitation. Two thousand seconds was allowed for dissociation time to accommodate for the slow off rate of the selected antibodies. The chip was regenerated by glycine-HCl, pH 1.7 buffer after each round of antibody-PAI-1 binding. Kinetics data analysis was performed using Biacore BIAevaluation software. The sensorgrams were double-referenced by subtracting the reference flow cell values and the blank buffer values. The sensorgrams were fitted by using the simulated kinetics 1:1 (Langmuir) model with local Rmax.

[22] = target: T4, human PAI-1; test: cell-based or functional assay; remark: listed apart in the source
[23] = target: T2, glycosylated human PAI-1 (active form); test: cell-based or functional assay; remark: listed apart in the source
[24] = target: T4, human PAI-1; test: cell-based or functional assay; remark: listed apart in the source
[25] = target: T4, human PAI-1; test: Biacore reverse assay, mAb captured by anti-mouse IgG Fc, 25 C
Description: as §1

[26] = target: T5, cynomolgus PAI-1; test: as above
Description: as §1

[27] = target: T2, glycosylated human PAI-1 (active form); test: cell-based or functional assay; remark: listed apart in the source
[28] = target: T3, human PAI-1 captured on immobilized …; test: Biacore, hPAI-1 on vitronectin chip, two state reaction model (ka1); two state reaction model, ka1 is the first-step rate

T4 sequence (P05121 24-402 limits assumed): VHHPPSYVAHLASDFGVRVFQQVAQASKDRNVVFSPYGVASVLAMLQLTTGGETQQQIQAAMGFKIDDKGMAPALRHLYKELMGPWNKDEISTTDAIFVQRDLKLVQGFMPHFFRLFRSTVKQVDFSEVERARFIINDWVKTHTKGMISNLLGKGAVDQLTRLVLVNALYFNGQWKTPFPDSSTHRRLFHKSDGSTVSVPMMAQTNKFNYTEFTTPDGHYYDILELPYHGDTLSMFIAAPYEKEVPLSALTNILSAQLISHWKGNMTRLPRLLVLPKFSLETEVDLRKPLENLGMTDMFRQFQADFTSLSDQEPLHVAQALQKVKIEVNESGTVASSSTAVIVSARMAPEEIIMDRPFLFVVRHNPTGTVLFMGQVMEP
T3 sequence (chain, as listed by the source limits assumed, chain 1 of 2): as the sequence (P05121 24-402 limits assumed) above
T3 sequence (P04004 20-478 limits assumed, chain 2 of 2): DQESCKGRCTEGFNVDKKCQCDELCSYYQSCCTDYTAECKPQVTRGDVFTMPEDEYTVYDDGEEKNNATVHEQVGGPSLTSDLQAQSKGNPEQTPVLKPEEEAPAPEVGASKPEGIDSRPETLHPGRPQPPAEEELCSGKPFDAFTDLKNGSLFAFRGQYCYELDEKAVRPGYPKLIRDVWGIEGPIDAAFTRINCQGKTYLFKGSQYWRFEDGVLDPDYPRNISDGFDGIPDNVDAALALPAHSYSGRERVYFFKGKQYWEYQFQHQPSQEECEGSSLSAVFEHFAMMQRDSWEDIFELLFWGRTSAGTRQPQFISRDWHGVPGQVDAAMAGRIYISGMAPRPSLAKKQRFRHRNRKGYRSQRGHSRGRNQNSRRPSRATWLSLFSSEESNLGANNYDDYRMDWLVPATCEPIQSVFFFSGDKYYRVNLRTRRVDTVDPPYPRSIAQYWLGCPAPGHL
T2 sequence (P05121 24-402 limits assumed): as the sequence (P05121 24-402 limits assumed) above
T5 sequence (P05121 other isoform, or with tags, fused parts or gaps limits assumed): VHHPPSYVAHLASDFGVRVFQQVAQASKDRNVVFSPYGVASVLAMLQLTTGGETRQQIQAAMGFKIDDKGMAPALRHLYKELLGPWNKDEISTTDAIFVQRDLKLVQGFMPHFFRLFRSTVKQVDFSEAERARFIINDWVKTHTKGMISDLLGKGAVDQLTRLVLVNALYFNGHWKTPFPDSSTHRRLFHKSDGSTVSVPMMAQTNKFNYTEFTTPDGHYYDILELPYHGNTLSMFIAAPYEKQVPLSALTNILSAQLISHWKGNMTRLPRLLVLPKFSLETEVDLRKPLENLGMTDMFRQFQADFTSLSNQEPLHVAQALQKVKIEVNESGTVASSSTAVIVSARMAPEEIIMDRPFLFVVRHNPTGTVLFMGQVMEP
T1 sequence (chain, as listed by the source limits assumed, chain 1 of 2): as the sequence (P05121 other isoform, or with tags, fused parts or gaps limits assumed) above
T1 sequence (P04004 20-478 limits assumed, chain 2 of 2): as the sequence (P04004 20-478 limits assumed, chain 2 of 2) above

Binder | koff [1] | Kd [3] | koff [3] | kon [3] | kon [4] | Kd [5] | koff [5] | kon [5] | Kd [7] | koff [7] | kon [7] | Plasminogen Activation IC50 [8] | Plasminogen Activation Y50% [8] | active PAI-1 by uPA-PAI-1 complex ELISA, hPAI-1 Standard, IC50 [9] | active PAI-1 by uPA-PAI-1 complex ELISA, hPAI-1 Standard, Y50% [9] | active PAI-1 by uPA-PAI-1 complex ELISA, hPlasma TH1782, IC50 [9] | active PAI-1 by uPA-PAI-1 complex ELISA, hPlasma TH1782, Y50% [9] | active PAI-1 by uPA-PAI-1 complex ELISA, Cyno PAI-1, IC50 [10] | active PAI-1 by uPA-PAI-1 complex ELISA, Cyno PAI-1, Y50% [10] | Kd [12] | further results
B1 | 0.0006 s⁻¹ | 15.6 pM | 0.000122 s⁻¹ | 7.66e+06 M⁻¹ s⁻¹ | 1.56e+06 M⁻¹ s⁻¹ | 42.5 pM | 6.68e-05 s⁻¹ | 1.57e+06 M⁻¹ s⁻¹ | 30 pM | 5.6e-05 s⁻¹ | 1.87e+06 M⁻¹ s⁻¹ | 2010 pM | 85.8% | 131 pM | 50.8% | 15.7 pM | 37.5% | 42.4 pM | 50.8% | 387 pM | human plasma clot lysis restoration, IC50 [2]: 2000 pM; human plasma clot lysis, IC50 [6]: 1380 pM; human plasma clot lysis, Imax @ 100 nM [6]: 113%; PAI-1 activity in human liver lysate (UK-PAI complex ELISA), IC50, A44-hv11 (1 nM) [11]: 36.5 pM; PAI-1 activity in human liver lysate (UK-PAI complex ELISA), IC50, A44-hv11 (2 nM) [11]: 50.3 pM; PAI-1 activity in human liver lysate (UK-PAI complex ELISA), IC50, A44-hv11 (3 nM) [11]: 46.5 pM
B2 | 0.000243 s⁻¹ | – | – | – | 2.12e+06 M⁻¹ s⁻¹ | 16.4 pM | 2.52e-05 s⁻¹ | 1.54e+06 M⁻¹ s⁻¹ | 27 pM | 5.08e-05 s⁻¹ | 1.89e+06 M⁻¹ s⁻¹ | 1820 pM | 71.1% | 166 pM | 52.8% | 31.1 pM | 61.4% | 28.1 pM | 52.8% | 115 pM | koff [13]: 0.000436 s⁻¹; kon [14]: 2.4e+06 M⁻¹ s⁻¹; Kd [15]: 179 pM
B3 | – | 40.4 pM | 0.000229 s⁻¹ | 5.68e+06 M⁻¹ s⁻¹ | – | – | – | – | – | – | – | 3130 pM | 79.8% | – | – | – | – | – | – | – | Kd [16]: 69.6 pM; koff [16]: 0.000275 s⁻¹; kon [16]: 3.98e+06 M⁻¹ s⁻¹; Plasmin Generation [17]: 3.32 nM; Kd [18]: ≤ 1 pM; koff [18]: ≤ 1e-06 s⁻¹; EC50, % PAI-1 neutralization, 2.8 nM cyno PAI-1 (chromogenic assay with human tPA); plateau about 100 % [19]: 226 pM; koff [20]: ≤ 0.0001 s⁻¹; Kd [21]: 0.042 pM; EC50, fall of % tPA inhibition by PAI-1 (chromogenic neutralisation assay) [22]: 4030 pM; Plasminogen Activation IC50 [23]: 3170 pM; Plasminogen Activation Y50% [23]: 46%; Chromogenic Assay IC50 [24]: 440 pM; Kd [25]: 3.76 pM; koff [25]: 1.49e-05 s⁻¹; Kd [26]: ≤ 0.1 pM; koff [26]: ≤ 1e-06 s⁻¹; plasmin generation, hepatic stellate cells, IC50abs [27]: 3320 pM; plasmin generation, hepatic stellate cells, Imax [27]: 97%
B4 | 0.000314 s⁻¹ | – | – | – | 2.3e+06 M⁻¹ s⁻¹ | – | – | – | – | – | – | – | – | – | – | – | – | – | – | 137 pM | koff [13]: 0.000403 s⁻¹; kon [28]: 2.99e+06 M⁻¹ s⁻¹; Chromogenic Assay IC50 [24]: 600 pM; Kd [15]: 135 pM
